In paper PMC4404499 (The Biochemical journal, 2014):
Residue numbers refer to the chain shown, from its start.

Assays:
Assay in all cases: pull-down
[1] = target: T1, GST-tagged TRIM3 I50A (mouse, UniProt Q9R1R2 1-744, I50A)
T1 sequence (looked up): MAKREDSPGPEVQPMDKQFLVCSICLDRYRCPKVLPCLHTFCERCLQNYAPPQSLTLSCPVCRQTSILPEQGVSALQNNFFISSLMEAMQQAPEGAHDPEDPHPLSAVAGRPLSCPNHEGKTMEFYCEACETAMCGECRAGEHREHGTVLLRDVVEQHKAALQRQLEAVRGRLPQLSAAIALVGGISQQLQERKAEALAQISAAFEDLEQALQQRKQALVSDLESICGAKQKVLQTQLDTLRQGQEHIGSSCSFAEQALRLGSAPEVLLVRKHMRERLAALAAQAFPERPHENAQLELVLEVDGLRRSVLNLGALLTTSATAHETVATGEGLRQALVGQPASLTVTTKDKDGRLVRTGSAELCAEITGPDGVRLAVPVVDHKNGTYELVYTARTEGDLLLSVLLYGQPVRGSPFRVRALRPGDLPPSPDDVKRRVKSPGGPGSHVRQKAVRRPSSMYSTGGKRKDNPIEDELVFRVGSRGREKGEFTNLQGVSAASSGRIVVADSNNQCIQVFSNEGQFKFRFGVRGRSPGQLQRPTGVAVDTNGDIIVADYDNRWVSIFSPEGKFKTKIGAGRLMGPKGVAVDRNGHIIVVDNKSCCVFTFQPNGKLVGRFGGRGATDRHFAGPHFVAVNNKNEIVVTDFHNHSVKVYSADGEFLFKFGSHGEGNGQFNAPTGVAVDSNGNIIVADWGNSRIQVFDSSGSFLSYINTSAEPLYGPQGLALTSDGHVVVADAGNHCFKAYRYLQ

[2] = target: T2, GST-tagged TRIM3 Y49A (mouse, UniProt Q9R1R2 1-744, Y49A)
T2 sequence (looked up): T1 sequence (looked up) with Y49A, A50I

[3] = target: T3, GST-tagged TRIM3 N48A (mouse, UniProt Q9R1R2 1-744, N48A)
T3 sequence (looked up): T1 sequence (looked up) with N48A, A50I

[4] = target: T4, GST-tagged TRIM3 L55A (mouse, UniProt Q9R1R2 1-744, L55A)
T4 sequence (looked up): T1 sequence (looked up) with A50I, L55A

Measured: binding result

B1: His-tagged p21 (wild-type) (natural protein, UniProt P39689 1-159, looked up)
chain: MSNPGDVRPVPHRSKVCRCLFGPVDSEQLRRDCDALMAGCLQEARERWNFDFVTETPLEGNFVWERVRSLGLPKVYLSPGSRSRDDLGGDKRPSTSSALLQGPAPEDHVALSLSCTLVSERPEDSPGGPGTSQGRKRRQTSLTDFYHSKRRLVFCKRKP
binds: [1] | [2] | [3] | [4]
